Columns and labels:
SEC-MALS = target: the molecule itself; assay: SEC-MALS
SEC = target: the molecule itself; assay: SEC

| Protein | stoichiometry N (SEC-MALS) | stoichiometry N (SEC) |
| --- | --- | --- |
| EndoA wild type (Drosophila Endophilin-A, GST tag cleaved) (natural protein, UniProt Q8T390 1-369, looked up) MAFAGLKKQINKANQYMTEKMGGAEGTKLDMDFMEMERKTDVTVELVEELQLKTKEFLQPNPTARAKMAAVKGISKLSGQAKSNTYPQPEGLLAECMLTYGKKLGEDNSVFAQALVEFGEALKQMADVKYSLDDNIKQNFLEPLHHMQTKDLKEVMHHRKKLQGRRLDFDCKRRRQAKDDEIRGAEDKFGESLQLAQVGMFNLLENDTEHVSQLVTFAEALYDFHSQCADVLRGLQETLQEKRSEAESRPRNEFVPKTLLDLNLDGGGGGLNEDGTPSHISSSASPLPSPMRSPAKSMAVTPQRQQQPCCQALYDFEPENPGELAFKENDIITLLNRVDDNWFEGAVNGRTGYFPQSYVQVQVPLPNGN | 2 |  |
| EndoA^D265R (Drosophila Endophilin-A D265R, GST tag cleaved) (natural protein, UniProt Q8T390 1-369, looked up) MAFAGLKKQINKANQYMTEKMGGAEGTKLDMDFMEMERKTDVTVELVEELQLKTKEFLQPNPTARAKMAAVKGISKLSGQAKSNTYPQPEGLLAECMLTYGKKLGEDNSVFAQALVEFGEALKQMADVKYSLDDNIKQNFLEPLHHMQTKDLKEVMHHRKKLQGRRLDFDCKRRRQAKDDEIRGAEDKFGESLQLAQVGMFNLLENDTEHVSQLVTFAEALYDFHSQCADVLRGLQETLQEKRSEAESRPRNEFVPKTLLDLNLRGGGGGLNEDGTPSHISSSASPLPSPMRSPAKSMAVTPQRQQQPCCQALYDFEPENPGELAFKENDIITLLNRVDDNWFEGAVNGRTGYFPQSYVQVQVPLPNGN | 2 |  |
| EndoA^D265A (Drosophila Endophilin-A D265A, GST tag cleaved) (natural protein, UniProt Q8T390 1-369, looked up) MAFAGLKKQINKANQYMTEKMGGAEGTKLDMDFMEMERKTDVTVELVEELQLKTKEFLQPNPTARAKMAAVKGISKLSGQAKSNTYPQPEGLLAECMLTYGKKLGEDNSVFAQALVEFGEALKQMADVKYSLDDNIKQNFLEPLHHMQTKDLKEVMHHRKKLQGRRLDFDCKRRRQAKDDEIRGAEDKFGESLQLAQVGMFNLLENDTEHVSQLVTFAEALYDFHSQCADVLRGLQETLQEKRSEAESRPRNEFVPKTLLDLNLAGGGGGLNEDGTPSHISSSASPLPSPMRSPAKSMAVTPQRQQQPCCQALYDFEPENPGELAFKENDIITLLNRVDDNWFEGAVNGRTGYFPQSYVQVQVPLPNGN | 2 |  |
| ENDOA1^WT (human Endophilin-A1, recombinant, GST tag cleaved) (natural protein, UniProt Q99962 1-352, looked up) MSVAGLKKQFHKATQKVSEKVGGAEGTKLDDDFKEMERKVDVTSRAVMEIMTKTIEYLQPNPASRAKLSMINTMSKIRGQEKGPGYPQAEALLAEAMLKFGRELGDDCNFGPALGEVGEAMRELSEVKDSLDIEVKQNFIDPLQNLHDKDLREIQHHLKKLEGRRLDFDYKKKRQGKIPDEELRQALEKFDESKEIAESSMFNLLEMDIEQVSQLSALVQAQLEYHKQAVQILQQVTVRLEERIRQASSQPRREYQPKPRMSLEFPTGDSTQPNGGLSHTGTPKPSGVQMDQPCCRALYDFEPENEGELGFKEGDIITLTNQIDENWYEGMLHGHSGFFPINYVEILVALPH |  | 2 |
| ENDOA1^G276V (human Endophilin-A1 with the Parkinson's disease risk variant G276V, recombinant, GST tag cleaved) (natural protein, UniProt Q99962 1-352, looked up) MSVAGLKKQFHKATQKVSEKVGGAEGTKLDDDFKEMERKVDVTSRAVMEIMTKTIEYLQPNPASRAKLSMINTMSKIRGQEKGPGYPQAEALLAEAMLKFGRELGDDCNFGPALGEVGEAMRELSEVKDSLDIEVKQNFIDPLQNLHDKDLREIQHHLKKLEGRRLDFDYKKKRQGKIPDEELRQALEKFDESKEIAESSMFNLLEMDIEQVSQLSALVQAQLEYHKQAVQILQQVTVRLEERIRQASSQPRREYQPKPRMSLEFPTGDSTQPNGVLSHTGTPKPSGVQMDQPCCRALYDFEPENEGELGFKEGDIITLTNQIDENWYEGMLHGHSGFFPINYVEILVALPH |  | 2 |

From publication doi:10.1101/2022.04.29.490010 (bioRxiv, 2022)
